The results in this text go back to publication PMC5095914.

For assay [1], the target named is YidC cysteine mutant labelled with Cy3 at position 454 (E. coli) (UniProt P25714). In words: other fluorescence titration; 60 nM Cy3-labelled YidC in 20 mM Hepes/KOH pH 7.5, 100 mM KCl, 10 mM MgOAc2, 5% glycerol, 0.1% DDM mixed 1:1 with 0.6 nM to 19.2 µM 70S ribosomes; 10 min at 20°C; fluorescence intensity on a Monolith NT.115; four repeats.
Assay [2] deals with xFOc (subunit c of the ATP synthase with cysteines C21 and C65), expressed in E. coli C43 membranes (E. coli) (UniProt P68699). Description: cross-linking; E. coli C43 membranes expressing xFOc oxidised with copper-1,10-phenanthroline (CuPh), with or without DTT; SDS-PAGE, western blotting with FOc antibody. For orientation: In western blotting, separated proteins are transferred to a membrane and probed.

Assay [3] has as its target xFOc (subunit c of the ATP synthase with cysteines C21 and C65), in vitro translated (E. coli) (UniProt P68699). Description: cross-linking; xFOc translated in vitro and inserted into proteoliposomes (large scale); mild oxidising conditions (lipids, atmospheric oxygen), no CuPh; non-reducing SDS-PAGE, phosphor imaging; c10-ring with HTL, SecYEG or without YidC, not with YidC alone.

One may read the Kd as the concentration at which binding is half-saturated. 70S ribosomes (complex) returned a Kd in assay [1] of 161 nM. This counts as sub-micromolar.

In general, stoichiometry N refers to the number of molecules, sites or subunits per partner or assembly. On to “xFOc (subunit c of the ATP synthase with cysteines C21 and C65), expressed in E. coli C43 membranes (from UniProt P68699 1-79) (natural protein)”, for which the stoichiometry N in assay [2] is 10.

The substance “xFOc (subunit c of the ATP synthase with cysteines C21 and C65), in vitro translated (from UniProt P68699 1-79) (natural protein)” showed a stoichiometry N in assay [3] of 10.
